Measurements published in the supplement of paper PMC10567573.

B1: ATL3 (parent)
chain: YGLQGGMAFLDKRLQVKEHQHEEI

Variants of: B1
Test: protein stability index of a GFP-peptide fusion (GPS, HEK-293T) (PSI 1-6); higher = more stable
Conditions: c terminus: a fixed tail appended
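Note: lentivirally expressed fusions sorted by FACS into six bins by GFP to DsRed ratio, PSI derived from sequencing read proportions per bin multiplied by bin number.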

Protein stability index, by site and new letter:
E22: M 2.24 | H 2.91 | R 2.16 | K 1.86 | W 2.76
L10: Q 1.65
L3: T 2.86 | H 2.81 | F 2.76 | Y 2.99 | R 3.69 | A 1.92 | I 2.2 | D 2.96 | N 2.45 | G 2.46
A8: G 2.81 | E 2.91 | K 1.71 | C 2 | W 3.35 | H 1.4 | L 2.67 | F 3.46 | S 2.09 | Q 2.02
D11: N 1.81 | C 2.94 | R 1.95 | F 1.78 | L 2.37 | Y 2.74 | M 2.22 | A 1.65
Y1: H 3.51 | I 4.07 | E 4.35 | T 4.08
E23: W 2.57 | R 2.99 | N 2.85 | I 2.66 | P 3.04 | T 2.74 | D 3.04 | Q 2.9 | V 2.17
R13: P 1.93 | T 2.28 | V 2.14 | A 2.47 | C 2.56 | Q 1.86 | E 1.59 | D 1.52
V16: K 2.84 | N 1.6 | R 2.02 | L 2.81 | D 2.08 | E 2.79 | P 1.22
H21: D 2.11 | M 2.2 | R 3.51 | Y 2.55 | S 3.88 | T 3.49 | P 2.33
E18: A 3.26 | V 1.9 | L 1.74 | W 3.87 | R 2.19 | S 1.73 | N 2.32
H19: E 2.81 | W 3.59 | M 2.82 | P 2.5 | V 3.03 | Q 2.48
Q15: M 3.24 | A 3.14 | V 2.9 | F 2.65 | C 3.47 | P 2.47
I24: F 4.03 | M 1.71 | G 3.23 | Y 4.04 | P 2.81 | A 2.58 | L 2.51 | R 2.26
Q4: D 2.18 | M 2.83 | P 2.37 | F 2.32 | S 2.16 | K 3.89
G2: D 3.52 | L 1.93 | T 2.05 | N 2.26 | H 2.3 | M 2.39 | A 2.28 | C 1.82
F9: E 5 | R 3.79 | P 4.69 | L 3.84 | D 4.88 | Q 4.42 | K 4.4 | Y 1.91 | W 2.26 | I 3.82
K12: H 2.03 | L 3.83 | P 1.88 | A 1.93 | Q 1.81
K17: Y 3.11 | V 2.42 | S 1.8 | R 2.99 | C 2.17 | E 2.56
G6: V 2.03 | A 3.1 | Q 2.95 | R 2.85 | T 1.73 | W 1.97 | M 2.26 | E 2.41 | S 2.13
Q20: T 2.2 | W 1.55 | D 3.09 | P 2 | G 3.57 | C 3.54 | S 2.12
M7: R 2.24 | H 1.75 | V 2.52 | I 2.28 | T 1.7 | S 2.05 | P 2.18 | K 3.76 | W 1.47 | E 3.23
L14: G 3.93 | C 3.61 | T 3.17 | E 2.55 | V 2.45
G5: L 2.39 | M 2.1 | P 2.65 | F 1.82 | R 2.39
